Residues, ends and D or L forms follow the SMILES beside them. *: point of attachment. Cbz = O=C(OCc1ccccc1)*; CH2F = FC*
Key:
[1] = test system: HeLa cells; test: DNA content by propidium iodide staining and flow cytometry in transfected HeLa cells; format: cell-based; settings: inhibitor 20 μM, 48 h
Procedure: HeLa cells were transfected with GFP-survivin(T34A) in the presence or in the absence of 20 μM of the caspase inhibitor, Z-VAD-fmk. Gated GFP-expressing cells were analyzed 48 h after transfection for DNA content by propidium iodide staining and flow cytometry. The percentages of apoptotic cells with sub-G1 (hypodiploid) […] DNA content are indicated. Apoptotic HeLa cells in GFP-vector transfectants were 8%. Data are representative of one experiment out of at least three independent determinations.
Transfection experiments. For transient transfection, HeLa cells in C-6 tissue culture plates (Costar, Cambridge, Mass.) at ˜60-70% confluency, were incubated in 1 ml of serum-free OptiMEM medium (Life Technologies, Gaithersburg, Md.) for 20 min, and transfected with 2.5 μg of the various plasmid cDNAs plus 9 μl Lipofectamine (Life Technologies). After a 5 h incubation at 37° C., the mixture was aspirated and substituted with complete growth medium for 48-72 h. To generate stable YUSAC-2 transfectants, a survivin(T34A) cDNA was inserted into the HindIII-SpeI sites of the pTet-splice vector (Dr. D. Schatz, Yale University School of Medicine), downstream of the regulatory sequences of the Tet-resistance operon (TetO). […] Gated GFP-expressing cells were analyzed for DNA content by flow cytometry on a FACSort (Becton Dickinson, San Jose, Calif.) using a Cell Quest software. […]

[2] = test system: HeLa cells; test: Nuclear morphology of apoptosis (DAPI) in transfected HeLa cells; format: cell-based; settings: for HeLa cell apoptosis induced by survivin(T34A), effect of co-transfected dominant negative caspase: co-transfection
Source text: HeLa cells transfected with GFP-vector (vector), GFP-survivin(T34A) (T34A), or GFP-caspase-9 (Met^1-Asp^330) (caspase-9), were scored morphologically for nuclear integrity by DAPI staining after 48-h. Arrows, nuclear fragmentation and chromatin condensation in GFP-expressing cells.
The experimental procedures are the same as in A. Data are the meaνSEM of four independent experiments.
HeLa cells were transfected with the various indicated combinations of GFP-constructs, with or without etoposide (10 μg/ml) or TNFα (10 ng/ml) plus cycloheximide (10 μg/ml), harvested after 48 h, and GFP-labeled cells were morphologically scored for nuclear fragmentation by DAPI staining, as described in FIG. 2B. DN, dominant negative. Data are the mea±SEM of four independent experiments.
Transfection experiments. For transient transfection, HeLa cells in C-6 tissue culture plates (Costar, Cambridge, Mass.) at ˜60-70% confluency, were incubated in 1 ml of serum-free OptiMEM medium (Life Technologies, Gaithersburg, Md.) for 20 min, and transfected with 2.5 μg of the various plasmid cDNAs plus 9 μl Lipofectamine (Life Technologies). After a 5 h incubation at 37° C., the mixture was aspirated and substituted with complete growth medium for 48-72 h. To generate stable YUSAC-2 transfectants, a survivin(T34A) cDNA was inserted into the HindIII-SpeI sites of the pTet-splice vector (Dr. D. Schatz, Yale University School of Medicine), downstream of the regulatory sequences of the Tet-resistance operon (TetO). YUSAC-2 cells were transfected with 0.8 μg pTet-T34A, 0.8 μg of the transactivation/selection plasmid ptTA-Neo and 5 μl Lipofectamine in 1 ml of OptiMem. Forty-eight h after transfection, cells were re-plated at low density in 15×150 mm plates in growth medium containing 1.5 mg/ml Geneticin (G418, Life Technologies), 2 mM sodium hydroxide and 0.5 μg/ml Tet (Sigma, St. Louis, Mo.) (selection medium). After a 3-week culture, ninety-six individual clones were screened for differential growth in the presence or absence of Tet. […] Flow cytometry. HeLa cells transfected with the various GFP constructs in the presence or in the absence of the broad-spectrum caspase inhibitor Z-VAD-fmk (20 μM) were harvested after 48-h (non-adherent and adherent cells), washed in PBS, pH 7.0, and fixed in cold 70% ethanol for 30 min on ice. After washes in PBS, cells (10×10^6/ml) were stained with 25 μg/ml propidium iodide (Sigma), 0.05% Triton X-100 and 100 μg/ml RNAse A (Boehringer Mannheim, Indianapolis, Ind.) for 45 min at 22° C. Gated GFP-expressing cells were analyzed for DNA content by flow cytometry on a FACSort (Becton Dickinson, San Jose, Calif.) using a Cell Quest software. In other experiments, F5-C4 cells were synchronized at the G1/S boundary by culture with 5-mM thymidine for 16 h at 37° C., in the presence or in the absence of Tet. At the end of the incubation, cells were released from the thymidine block, and harvested at 3-h intervals for DNA content analysis by propidium iodide staining and flow cytometry, or, alternatively, for caspase-9 processing by Western blotting (see below). TUNEL staining. Internucleosomal DNA fragmentation of F5.C4 cells in the presence or in the absence of Tet was carried out by end-labeling with terminal deoxynucleotidyl transferase (TdT) and peroxidase-conjugated anti-digoxigenin antibody using the ApopTag kit (Intergen, Purchase, N.Y.), as described previously (Grossman et al., 1999). Immunoprecipitation and Western blotting. Asynchronously growing or synchronized HeLa cells were lysed in 200 μl of lysis buffer containing 50 mM Tris, pH 7.5, 1% NP-40, 0.25% DOC, 150 mM NaCl, 1 mM PMSF, 10 μg/ml aprotinin, 10 μg/ml leupeptin, 10 μg/ml pepstatin, 1 mM Na3VO4, 20 mM NaF, 0.2 mM EGTA, 1 mM EDTA, pH 8.0, for 30 min at 4° C. Insoluble material was removed by centrifugation at 14,000 rpm for 15 min, and two-hundred μg of protein lysate was pre-absorbed with 25 μl of a 50:50 Protein A Sepharose slurry (Pharmacia) for 3 h at 4° C. with constant agitation. […]

## COC(=O)C[C@H](NC(=O)[C@H](C)NC(=O)[C@@H](NC(=O)OCc1ccccc1)C(C)C)C(=O)CF [Z-VAD-fmk, reference compound] (Cbz-Val-Ala-Asp(OMe)-CH2F)
[1]
  effect on sub-G1 DNA content induced by GFP-survivin(T34A): reversed

## Leu^64ÕAla: another survivin point mutant in the Baculovirus IAP repeat (BIR), control [reference compound]
[2]; survivin BIR domain mutants
  ability to induce spontaneous apoptosis upon transient transfection: did not cause apoptosis

B1: caspase-8(C360S): caspase-8 dominant negative mutant obtained from Dr. V. Dixit (protein, UniProt Q14790 1-479, looked up, variant C360S)
chain: MDFSRNLYDIGEQLDSEDLASLKFLSLDYIPQRKQEPIKDALMLFQRLQEKRMLEESNLSFLKELLFRINRLDLLITYLNTRKEEMERELQTPGRAQISAYRVMLYQISEEVSRSELRSFKFLLQEEISKCKLDDDMNLLDIFIEMEKRVILGEGKLDILKRVCAQINKSLLKIINDYEEFSKERSSSLEGSPDEFSNGEELCGVMTISDSPREQDSESQTLDKVYQMKSKPRGYCLIINNHNFAKAREKVPKLHSIRDRNGTHLDAGALTTTFEELHFEIKPHDDCTVEQIYEILKIYQLMDHSNMDCFICCILSHGDKGIIYGTDGQEAPIYELTSQFTGLKCPSLAGKPKVFFIQASQGDNYQKGIPVETDSEEQPYLEMDLSSPQTRYIPDEADFLLGMATVNNCVSYRNPAEGTWYIQSLCQSLRERCPRGDDILTILTEVNYEVSNKDDKKNMGKQMPQPTFTLRKKLVFPSD
[2]; TNFα 10 ng/ml plus cycloheximide 10 μg/ml, 48 h
  cell death induced by TNFα/cycloheximide: completely inhibited
[2]; 48 h
  HeLa cell apoptosis induced by survivin(T34A), effect of co-transfected dominant negative caspase: did not reduce apoptosis

B2: caspase-9(C287A): caspase 9 dominant negative mutant (Cys287→Ala) (protein, UniProt P55211 1-416, looked up, variant C287A)
chain: MDEADRRLLRRCRLRLVEELQVDQLWDALLSRELFRPHMIEDIQRAGSGSRRDQARQLIIDLETRGSQALPLFISCLEDTGQDMLASFLRTNRQAAKLSKPTLENLTPVVLRPEIRKPEVLRPETPRPVDIGSGGFGDVGALESLRGNADLAYILSMEPCGHCLIINNVNFCRESGLRTRTGSNIDCEKLRRRFSSLHFMVEVKGDLTAKKMVLALLELAQQDHGALDCCVVVILSHGCQASHLQFPGAVYGTDGCPVSVEKIVNIFNGTSCPSLGGKPKLFFIQAAGGEQKDHGFEVASTSPEDESPGSNPEPDATPFQEGLRTFDQLDAISSLPTPSDIFVSYSTFPGFVSWRDPKSGSWYVETLDDIFEQWAHSEDLQSLLLRVANAVSVKGIYKQMPGCFNFLRKKLFFKTS
[2]; 48 h
  HeLa cell apoptosis induced by survivin(T34A), effect of co-transfected dominant negative caspase: reversed HeLa cell apoptosis induced by survivin(T34A) to background levels
[2]; etoposide 10 μg/ml, 48 h
  nuclear fragmentation and chromatin condensation induced by etoposide: inhibited

Source: patent publication US7553821B2, “Methods for selectively modulating survivin apoptosis pathways” (Yale University, priority 2000, dated 2009)
